Source: patent publication US20100041597A1 (published 2010)

What was measured:
[1] = target: T1, PKC-βII (purified isoform) (Homo sapiens (Human), UniProt P05771 2-621); test: summary grade, purified isoform ELISA
T1 construct: also called PKC-beta II

[2] = target: T2, PKC-δ (purified isoform) (Homo sapiens (Human), UniProt Q05655 1-676); test: competitive ELISA on purified PKC-δ vs anti-PKC-δ Ab; PRE 50 µM
T2 construct: also called PKC-delta; PKCdelta
Method: (§1) Greiner 96 well ELISA plates were coated with the appropriate PKC isoform diluted in PBSN (PBS with Calcium/Magnesium+0.05% Sodium azide w/w). 50 μL/well at 250 ng/mL was used. Control wells contained PBSN only. Plates were incubated overnight at 4° C.
(§2) The plates were washed 3 times with 200 μL of dH₂O per well, then 100 μL of blocking solution was added per well and the plate incubated for 1 h at 37° C. The washing steps with dH₂O were repeated and 50 μL of the appropriate PRE solution (PRE stock solution [20 mM in DMSO] diluted in PBSN) was added and the plate incubated for 1 h at room temperature.
(§3) 50 μL of 1:1000 dilution of Alkaline Phosphatase (AP) conjugated antibody (anti-rabbit for all except zeta, which was anti-goat) was then added and the plate incubated for 1 h at room temperature. Washing with dH₂O was then repeated. Finally, 100 μL of pNPP solution in pNPP buffer (2 mM MgCl₂, 100 mM Sodium bicarbonate in water, pH 9.8) was added to all wells and incubated for 8 minutes for α, βI, βII ε, and ζ, or for 15-20 mins for […] (until sufficient coloration is observed). The reaction was stopped by addition of Stop solution (2N NaOH) and the absorbance at 405 nm was read on a Galaxy Plate reader.

[3] = target: T2, PKC-δ (purified isoform); test: competitive ELISA on purified PKC-δ vs anti-PKC-δ Ab; PRE 100 µM
Method: as §1, §2, §3

[4] = target: T2, PKC-δ (purified isoform); test: competitive ELISA on purified PKC-δ vs anti-PKC-δ Ab; PRE 200 µM
Method: as §1, §2, §3

[5] = target: T3, PKC-βI (purified isoform) (Homo sapiens (Human), UniProt P05771 2-671); test: competitive ELISA on purified PKC-βI vs anti-PKC-βI Ab; PRE 50 µM
T3 construct: also called PKC-beta I
T3 sequence (P05771 2-671 limits assumed): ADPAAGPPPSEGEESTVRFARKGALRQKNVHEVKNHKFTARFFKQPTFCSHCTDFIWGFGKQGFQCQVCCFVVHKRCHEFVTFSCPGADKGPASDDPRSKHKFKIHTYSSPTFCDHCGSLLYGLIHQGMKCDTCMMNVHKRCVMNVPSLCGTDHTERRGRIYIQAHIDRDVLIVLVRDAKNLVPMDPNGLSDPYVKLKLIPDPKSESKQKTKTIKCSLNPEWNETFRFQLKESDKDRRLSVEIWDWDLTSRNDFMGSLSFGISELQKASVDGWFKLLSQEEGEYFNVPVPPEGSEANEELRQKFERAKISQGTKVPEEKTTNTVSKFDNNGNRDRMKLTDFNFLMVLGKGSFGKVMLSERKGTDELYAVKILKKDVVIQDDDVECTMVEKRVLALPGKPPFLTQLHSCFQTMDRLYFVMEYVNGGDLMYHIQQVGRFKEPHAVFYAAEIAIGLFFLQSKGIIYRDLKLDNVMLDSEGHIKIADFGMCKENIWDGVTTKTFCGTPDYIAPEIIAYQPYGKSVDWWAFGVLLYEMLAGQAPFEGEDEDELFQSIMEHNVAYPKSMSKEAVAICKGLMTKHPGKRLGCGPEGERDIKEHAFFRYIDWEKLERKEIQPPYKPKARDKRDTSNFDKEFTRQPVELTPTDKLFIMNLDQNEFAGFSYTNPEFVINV
Method: as §1, §2, §3

[6] = target: T3, PKC-βI (purified isoform); test: competitive ELISA on purified PKC-βI vs anti-PKC-βI Ab; PRE 100 µM
Method: as §1, §2, §3

[7] = target: T3, PKC-βI (purified isoform); test: competitive ELISA on purified PKC-βI vs anti-PKC-βI Ab; PRE 200 µM
Method: as §1, §2, §3

[8] = target: T1, PKC-βII (purified isoform); test: competitive ELISA on purified PKC-βII vs anti-PKC-βII Ab; PRE 50 µM
Method: as §1, §2, §3

[9] = target: T1, PKC-βII (purified isoform); test: competitive ELISA on purified PKC-βII vs anti-PKC-βII Ab; PRE 100 µM
Method: as §1, §2, §3

[10] = target: T1, PKC-βII (purified isoform); test: competitive ELISA on purified PKC-βII vs anti-PKC-βII Ab; PRE 200 µM
Method: as §1, §2, §3

[11] = target: T4, PKC-ι (endogenous, human cell extracts) (human, UniProt P41743 2-596); test: Western-blot competition on cell extracts against the anti-PKC-ι primary antibody; band densitometry
T4 construct: also called PKC-iota
T4 sequence (looked up): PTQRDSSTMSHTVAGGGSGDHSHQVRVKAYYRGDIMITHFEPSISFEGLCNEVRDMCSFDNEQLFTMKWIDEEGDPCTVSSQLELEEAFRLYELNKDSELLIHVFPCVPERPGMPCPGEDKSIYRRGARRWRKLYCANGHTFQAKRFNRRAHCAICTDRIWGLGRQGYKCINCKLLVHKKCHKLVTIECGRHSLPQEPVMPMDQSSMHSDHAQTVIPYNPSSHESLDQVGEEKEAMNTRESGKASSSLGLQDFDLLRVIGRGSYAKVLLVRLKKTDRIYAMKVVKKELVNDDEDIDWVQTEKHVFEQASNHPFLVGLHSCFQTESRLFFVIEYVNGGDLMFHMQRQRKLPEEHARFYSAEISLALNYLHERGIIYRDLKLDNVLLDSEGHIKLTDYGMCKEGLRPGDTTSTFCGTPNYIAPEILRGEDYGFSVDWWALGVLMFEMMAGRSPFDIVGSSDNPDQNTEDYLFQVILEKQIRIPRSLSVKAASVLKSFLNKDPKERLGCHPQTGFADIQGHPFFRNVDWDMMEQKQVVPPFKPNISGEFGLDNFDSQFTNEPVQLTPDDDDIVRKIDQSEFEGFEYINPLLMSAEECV
Method: Binding efficiency and specificity of the peptides PRE 2, 3, 4, 5, 6, 7, 8, 9, 10, 11, 12 and 13 (see Table 3) was also tested using cytoplasmic extracts from different cell lines expressing appropriate PKC isoforms as described for Example 1. Briefly, the protein cytoplasmic extracts were separated by electrophoresis and transferred onto nitrocellulose membranes by standard Western blotting procedures. The bands on the Western blots were detected with matching primary antibodies and alkaline phosphatase conjugated secondary antibody. The bands were then scanned and the relative density measurements obtained.
This procedure to assess the binding characteristics of the PREs is based on competition binding of the PRE with the primary anti-isoform PKC specific antibodies. The lower the measured band density, the greater the binding of the PRE to the PKC isoform. The PREs were added at 10 and 20 times (10×, 20×) the primary antibody concentration, according to classical competition between antigenic peptide and primary antibody. The following cell lines (obtained from the ATCC) were used: H661—NCI human lung carcinoma NSCLC; MDAMB231—human highly invasive breast cancer cell line from pleural effusion; LS180—human colon adenocarcinoma; LnCAP—human prostate adenocarcinoma; CCD16Lu—human lung fibroblasts; Du145—human prostate carcinoma brain metastasis, and T24—human bladder carcinoma.

[12] = target: T5, PKC-α (endogenous, human cell lysates and cells) (human, UniProt P17252 2-672); test: anti-PKC-α immunofluorescence, V5E-transfected IMR-32 cells loaded with PRE (label on PKC-α and V5E); control with endocytosis reagent 113
T5 construct: Endogenous protein of human cell lysates, on Western blot membranes (denatured) or in fixed cells; also called PKC-alpha; PKC-A
Source text: Neuroblastoma cells from the IMR-32 cell line were stably transfected with a vector containing the V5E sequence of PKC-α as outlined above in Example 13. The V5E sequence is part of the antigenic amino acid sequence that is used to raise the commercially available anti-PKC-α isoform-specific antibody.
The peptides PRE 1, 2, 3, 4, 5, 6, 7, 8, 9, 10, 11, 12 and 13 (see Table 3) were incorporated into the transfected IMR-32 cells via pinocytic endocytosis (Molecular Probes) according to the supplier's recommendations. Following fixation and permeabilization, PKC-α was detected using an Alexa fluor secondary antibody (as described above in Example 8).

T1 sequence (P05771 other isoform, or with tags, fused parts or gaps limits assumed): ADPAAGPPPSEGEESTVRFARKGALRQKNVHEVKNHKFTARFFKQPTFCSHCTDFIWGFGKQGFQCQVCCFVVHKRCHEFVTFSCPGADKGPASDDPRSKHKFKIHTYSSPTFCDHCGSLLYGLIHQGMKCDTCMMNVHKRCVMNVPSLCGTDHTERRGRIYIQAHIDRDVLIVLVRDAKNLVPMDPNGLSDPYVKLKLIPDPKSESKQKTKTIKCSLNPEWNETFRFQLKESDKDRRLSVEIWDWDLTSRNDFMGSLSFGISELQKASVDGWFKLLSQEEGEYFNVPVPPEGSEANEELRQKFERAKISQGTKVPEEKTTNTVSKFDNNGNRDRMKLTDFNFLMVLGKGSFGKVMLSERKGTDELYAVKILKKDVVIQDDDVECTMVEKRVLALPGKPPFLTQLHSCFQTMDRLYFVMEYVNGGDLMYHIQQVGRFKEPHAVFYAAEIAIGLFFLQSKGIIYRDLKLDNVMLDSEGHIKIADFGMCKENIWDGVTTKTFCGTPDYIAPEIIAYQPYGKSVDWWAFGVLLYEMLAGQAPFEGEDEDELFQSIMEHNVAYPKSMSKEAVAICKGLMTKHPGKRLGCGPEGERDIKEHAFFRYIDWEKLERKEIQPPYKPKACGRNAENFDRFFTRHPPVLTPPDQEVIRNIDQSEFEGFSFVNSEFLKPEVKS
T2 sequence (Q05655 whole entry, stated change not applied, canonical isoform): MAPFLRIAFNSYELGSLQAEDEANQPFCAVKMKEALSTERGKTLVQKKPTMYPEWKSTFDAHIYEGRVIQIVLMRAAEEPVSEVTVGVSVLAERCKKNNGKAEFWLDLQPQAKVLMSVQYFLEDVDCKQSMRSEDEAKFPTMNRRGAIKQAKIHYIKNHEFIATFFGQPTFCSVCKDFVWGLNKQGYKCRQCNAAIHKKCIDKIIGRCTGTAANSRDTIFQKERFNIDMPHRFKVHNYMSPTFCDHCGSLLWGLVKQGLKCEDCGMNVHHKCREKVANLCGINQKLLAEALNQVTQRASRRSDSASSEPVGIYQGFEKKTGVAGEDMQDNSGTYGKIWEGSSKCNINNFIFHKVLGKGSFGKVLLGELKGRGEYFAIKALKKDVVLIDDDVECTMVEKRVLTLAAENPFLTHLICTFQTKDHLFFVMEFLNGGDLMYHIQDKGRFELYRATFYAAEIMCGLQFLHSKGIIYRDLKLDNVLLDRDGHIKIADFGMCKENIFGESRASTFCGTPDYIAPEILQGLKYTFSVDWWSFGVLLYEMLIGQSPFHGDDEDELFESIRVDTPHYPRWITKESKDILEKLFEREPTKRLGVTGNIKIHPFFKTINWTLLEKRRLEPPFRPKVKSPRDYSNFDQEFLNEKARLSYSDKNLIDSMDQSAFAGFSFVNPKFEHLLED

binding result [1]: no binding (tested: 200 µM) | binding capacity (%) [2]: 35.7% | binding capacity (%) [3]: 45.2% | binding capacity (%) [4]: 49.4% | binding capacity (%) [5]: 19.8% | binding capacity (%) [6]: 13.9% | binding capacity (%) [7]: 13.4% | binding capacity (%) [8]: 0% | binding capacity (%) [9]: 0% | binding capacity (%) [10]: 0% | Relative Fluorescence Intensity [12]: 79
B1: PRE 1 (peptide)
peptide: RRKKGGKDFVVKR
notes: Synthetic peptide, solid phase synthesis; termini given free; also called peptide PRE 1
binding result [11]: no binding (tested: 20X the primary antibody concentration)
